From publication PMC5342555, “ATAD2 is an epigenetic reader of newly synthesized histone marks during DNA replication” (Oncotarget, 2016) come the findings set out here.

Residue numbers refer to the chain shown, from its start. Numbers in names are those of the source.

This experiment has as its system HDAC1 binding to H4K5,12diac. As to the kind of experiment: In vitro competition with HDAC1 for immobilized H4K5,12diac peptides (direct binding pull down). The note with it: full length ATAD2 0.22 μM pre-incubated 2 h, then 0.1 μM HDAC1 2 h; 1 μM peptide. On the procedure: H4 peptides (1-25) conjugated with Biotin was immobilized on Streptavidin-coupled Dynabeads for 2 hours at 4 °C and incubated with nuclear extract from MCF7 cells. Nuclear extract was prepared by first isolating nucleus in hypotonic buffer (10 mM Tris-HCl pH 8.5, 10 mM NaCl, 0.5 mM TCEP and 0.1 % NP-40) and disrupting nuclear envelop in high salt buffer (20 mM Tris-HCl pH 8.5, 420 mM NaCl, 0.5 mM TCEP, 0.1 % Triton X-100, 25 % Glycerol) for 2 hours at 4 °C. Soluble nuclear extract was harvested by centrifugation at 20000 g for 20 min and diluted to 1:3 in buffer without NaCl in order to achieve physiological salt concentration, 140 mM. The nuclear extract was incubated with the immobilized peptides on the Streptavidin-Dynabeads overnight at 4 °C. Next day, the beads were washed three times with washing buffer (20 mM Tris-HCl pH 8.5, 140 mM NaCl, 0.5 mM TCEP, 0.1 % Triton X-100, 25 % Glycerol) and twice with high salt buffer. Bound proteins were recovered by boiling the beads in 1X sample buffer for 5 min. at 95 °C and analyzed by SDS-PAGE and Western Blotting. For direct binding experiments 1 μM of immobilized histone peptides on Streptavidin-Dynabeads were incubated with indicated amounts of ligands for 2 hours at 4 °C. After stringent washing as described above, bound proteins were analyzed in Western Blotting.

B1: WT ATAD2: recombinant FLAG-tagged full length ATAD2 purified from HEK 293 cells (protein)
chain: MVVLRSSLELHNHSAASATGSLDLSSDFLSLEHIGRRRLRSAGAAQKKPAATTAKAGDGSSVKEVETYHRTRALRSLRKDAQNSSDSSFEKNVEITEQLANGRHFTRQLARQQADKKKEEHREDKVIPVTRSLRARNIVQSTEHLHEDNGDVEVRRSCRIRSRYSGVNQSMLFDKLITNTAEAVLQKMDDMKKMRRQRMRELEDLGVFNETEESNLNMYTRGKQKDIQRTDEETTDNQEGSVESSEEGEDQEHEDDGEDEDDEDDDDDDDDDDDDDDEDDEDEEDGEEENQKRYYLRQRKATVYYQAPLEKPRHQRKPNIFYSGPASPARPRYRLSSAGPRSPYCKRMNRRRHAIHSSDSTSSSSSEDEQHFERRRKRSRNRAINRCLPLNFRKDELKGIYKDRMKIGASLADVDPMQLDSSVRFDSVGGLSNHIAALKEMVVFPLLYPEVFEKFKIQPPRGCLFYGPPGTGKTLVARALANECSQGDKRVAFFMRKGADCLSKWVGESERQLRLLFDQAYQMRPSIIFFDEIDGLAPVRSSRQDQIHSSIVSTLLALMDGLDSRGEIVVIGATNRLDSIDPALRRPGRFDREFLFSLPDKEARKEILKIHTRDWNPKPLDTFLEELAENCVGYCGADIKSICAEAALCALRRRYPQIYTTSEKLQLDLSSINISAKDFEVAMQKMIPASQRAVTSPGQALSTVVKPLLQNTVDKILEALQRVFPHAEFRTNKTLDSDISCPLLESDLAYSDDDVPSVYENGLSQKSSHKAKDNFNFLHLNRNACYQPMSFRPRILIVGEPGFGQGSHLAPAVIHALEKFTVYTLDIPVLFGVSTTSPEETCAQVIREAKRTAPSIVYVPHIHVWWEIVGPTLKATFTTLLQNIPSFAPVLLLATSDKPHSALPEEVQELFIRDYGEIFNVQLPDKEERTKFFEDLILKQAAKPPISKKKAVLQALEVLPVAPPPEPRSLTAEEVKRLEEQEEDTFRELRIFLRNVTHRLAIDKRFRVFTKPVDPDEVPDYVTVIKQPMDLSSVISKIDLHKYLTVKDYLRDIDLICSNALEYNPDRDPGDRLIRHRACALRDTAYAIIKEELDEDFEQLCEEIQESRKKRGCSSSKYAPSYYHVMPKQNSTLVGDKRSDPEQNEKLKTPSTPVACSTPAQLKRKIRKKSNWYLGTIKKRRKISQAKDDSQNAIDHKIESDTEETQDTSVDHNETGNTGESSVEENEKQQNASESKLELRNNSNTCNIENELEDSRKTTACTELRDKIACNGDASSSQIIHISDENEGKEMCVLRMTRARRSQVEQQQLITVEKALAILSQPTPSLVVDHERLKNLLKTVVKKSQNYNIFQLENLYAVISQCIYRHRKDHDKTSLIQKMEQEVENFSCSR
modifications: left off: tagGFP, end not stated, kept
notes: recombinant FLAG-tagged full length ATAD2 purified from HEK 293 cells
In the case of B1, the “competition with HDAC1 for interaction with H4K5,12diac” value is given as “competes”.

B2: ATPase mutant ATAD2: recombinant full length ATPase inactive mutant ATAD2 (K473T and E532Q) (protein)
chain: B1 chain with K473T, E532Q
modifications: left off: tagGFP, end not stated, kept
Consider B2, for which the “competition with HDAC1 for interaction with H4K5,12diac” value was “not”.
